Where only a bound is given, the exact number is not on record here.

This assay deals with SARS-CoV-2 (2019-nCov) Spike S1 (Abclonal, RP01262) (SARS-CoV-2) (UniProt P0DTC2). Nature of the assay: SPR.

The substance “Human integrin αvβ3 (R&D Systems, 3817-AV-050) (from UniProt P06756 31-1048; P05106 27-718) (complex)” came in with a dissociation constant (Kd) of 0.0404 µM. Regarding “suPAR (purified protein of the SPR assay) (from UniProt Q03405 23-305) (natural protein)”, the Kd is above 2000 µM.

A word on the Kd: it is the constant that tells how readily two partners part at equilibrium.

These data come from article PMC10362037.
